Measured values from patent publication US20160160238.

Tests used:
Experiment in all cases: cell_activity
[1] = test system: TALEN ssNF1ex42.2 left (synthetic (Xanthomonas TALE-FokI)?); details: HDR by RFLP, pig fibroblasts, 3 days 30 C; pair with P4, 16 bp spacer
[2] = test system: TALEN ssTP53 E6 right (synthetic (Xanthomonas TALE-FokI)?); details: Surveyor (Cel) assay, co-transfected with ssNF1 42.3; pair with P7, 16 bp spacer
[3] = test system: TALEN ssNF1ex42.2 right (synthetic (Xanthomonas TALE-FokI)?); details: HDR by RFLP, pig fibroblasts, 3 days 30 C; pair with P3, 16 bp spacer
[4] = test system: TALEN ssNF1ex42.3 right (synthetic (Xanthomonas TALE-FokI)?); details: HDR by RFLP, pig fibroblasts, 3 days 30 C; pair with P5, 16 bp spacer; 25.5% when co-transfected with ssTP53 E6
[5] = test system: TALEN ssNF1ex42.3 left (synthetic (Xanthomonas TALE-FokI)?); details: HDR by RFLP, pig fibroblasts, 3 days 30 C; pair with P6, 16 bp spacer; 25.5% when co-transfected with ssTP53 E6
[6] = test system: TALEN ssTP53 E6 left (synthetic (Xanthomonas TALE-FokI)?); details: Surveyor (Cel) assay, co-transfected with ssNF1 42.3; pair with P8, 16 bp spacer
[7] = test system: TALEN ssNF1ex42.1 right (synthetic (Xanthomonas TALE-FokI)?); details: HDR by RFLP, pig fibroblasts, 3 days 30 C; pair with P1, 16 bp spacer
[8] = test system: TALEN ssNF1ex42.1 left (synthetic (Xanthomonas TALE-FokI)?); details: HDR by RFLP, pig fibroblasts, 3 days 30 C; pair with P2, 16 bp spacer

AAGCACAATGATGATGC (double strand) [NF1 exon 42 site, 42.2 left half-site]
activity (% allele modification) [1]: 45.1

AAGTCAGAGTACATG (double strand) [TP53 exon 6 site, right half-site]
activity [2]: 11.8 % cutting

ACTGCGATCCTTGATA (double strand) [NF1 exon 42 site, 42.2 right half-site]
activity (% allele modification) [3]: 45.1

CCTTGATAAGCTGATA (double strand) [NF1 exon 42 site, 42.3 right half-site]
activity (% allele modification) [4]: 27.2

GATGATGCCAAACGAC (double strand) [NF1 exon 42 site, 42.3 left half-site]
activity (% allele modification) [5]: 27.2

GGCACCCGTGTCCGCGC (double strand) [TP53 exon 6 site, left half-site]
activity [6]: 11.8 % cutting

GTTACTGCGATCCTTG (double strand) [NF1 exon 42 site, 42.1 right half-site]
activity (% allele modification) [7]: 54.2

TGTAAGCACAATGATGA (double strand) [NF1 exon 42 site, 42.1 left half-site]
activity (% allele modification) [8]: 54.2
